Article doi:10.1101/2019.12.13.875658 (bioRxiv, 2019)

Assays:
[1] = molecular target: the molecule itself; assay: cryo-EM structure
[2] = molecular target: β subunit of RNAP (E. coli, UniProt P0A8V2 1-1342); assay: cryo-EM structure
Sequence of β subunit of RNAP (P0A8V2 whole entry): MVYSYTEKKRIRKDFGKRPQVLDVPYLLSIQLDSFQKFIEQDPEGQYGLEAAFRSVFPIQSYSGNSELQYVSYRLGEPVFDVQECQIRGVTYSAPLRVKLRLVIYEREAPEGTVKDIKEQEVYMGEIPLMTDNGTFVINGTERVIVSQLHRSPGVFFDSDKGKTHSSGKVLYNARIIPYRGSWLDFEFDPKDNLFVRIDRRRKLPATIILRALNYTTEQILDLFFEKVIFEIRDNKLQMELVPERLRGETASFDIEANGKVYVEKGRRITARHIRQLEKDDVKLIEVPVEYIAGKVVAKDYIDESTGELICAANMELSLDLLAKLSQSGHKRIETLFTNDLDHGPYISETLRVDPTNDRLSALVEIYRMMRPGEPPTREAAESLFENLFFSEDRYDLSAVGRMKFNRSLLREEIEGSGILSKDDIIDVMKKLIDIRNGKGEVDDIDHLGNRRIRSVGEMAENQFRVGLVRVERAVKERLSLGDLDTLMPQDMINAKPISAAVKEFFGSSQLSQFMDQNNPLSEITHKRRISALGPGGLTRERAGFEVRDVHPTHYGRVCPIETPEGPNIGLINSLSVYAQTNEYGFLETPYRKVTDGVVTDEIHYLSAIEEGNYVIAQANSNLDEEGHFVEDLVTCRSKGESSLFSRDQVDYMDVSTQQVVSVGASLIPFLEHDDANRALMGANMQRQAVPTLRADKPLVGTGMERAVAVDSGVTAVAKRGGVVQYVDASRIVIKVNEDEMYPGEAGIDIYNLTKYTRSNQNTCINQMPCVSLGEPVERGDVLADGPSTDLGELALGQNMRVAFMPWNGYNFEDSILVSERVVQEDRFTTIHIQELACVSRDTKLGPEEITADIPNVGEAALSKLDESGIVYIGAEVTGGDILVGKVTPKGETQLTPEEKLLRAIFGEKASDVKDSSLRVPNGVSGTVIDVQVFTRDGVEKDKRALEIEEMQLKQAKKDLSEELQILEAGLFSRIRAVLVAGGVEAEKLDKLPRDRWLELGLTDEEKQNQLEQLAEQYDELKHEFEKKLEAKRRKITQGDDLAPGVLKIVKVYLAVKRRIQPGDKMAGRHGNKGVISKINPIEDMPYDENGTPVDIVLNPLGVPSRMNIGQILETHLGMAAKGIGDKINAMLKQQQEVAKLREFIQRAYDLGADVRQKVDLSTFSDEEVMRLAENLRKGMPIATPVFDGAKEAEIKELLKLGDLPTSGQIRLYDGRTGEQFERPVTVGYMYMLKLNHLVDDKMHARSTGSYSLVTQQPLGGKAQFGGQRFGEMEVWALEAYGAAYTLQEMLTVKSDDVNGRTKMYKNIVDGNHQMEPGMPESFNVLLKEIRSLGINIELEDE

B1: Cyclic AMP receptor protein (CAP) (natural protein)
chain: MVLGKPQTDPTLEWFLSHCHIHKYPSKSTLIHQGEKAETLYYIVKGSVAVLIKDEEGKEMILSYLNQGDFIGELGLFEEGQERSAWVRAKTACEVAEISYKKFRQLIQVNPDILMRLSAQMARRLQVTSEKVGNLAFLDVTGRIAQTLLNLAKQPDAMTHPDGMQIKITRQEIGQIVGCSRETVGRILKMLEDQNLISAHGKTIVVYGTR
[1]
  stoichiometry N: 2
[2]
  binding result: binds
